To fix the notation:
B1: An96 fIX (ancestral sequence 96 factor IX) (protein)
chain: YNSGKLEEFVRGNLERECIEEKCSFEEAREVFENTEKTTEFWKQYVDGDQCESNPCLNGGSCKDDINSYECWCRFGFEGKNCELDATCSIKNGRCKQFCKKSADNKVVCSCTEGYRLAEDQKSCEPAVPFPCGRVSVSHTSKKLTRAETIFSNMDYENSTEAETILDNVTQSTQSFNDFTRVVGGENAKPGQFPWQVLLNGKIDAFCGGSIINEKWVVTAAHCIEPGVKITVVAGEHNIEKTEPTEQKRNVIRVIPHHNYNATINKYSHDIALLELDKPLTLNSYVTPICIANREYTNIFLKFGSGYVSGWGRVFNRGRSASILQYLRVPLVDRATCLRSTKFTIYNNMFCAGYHEGGKDSCQGDSGGPHVTEVEGTSFLTGIISWGEECAMKGKYGIYTKVSRYVNWIKEKTKLT
B2: fIX optimized sequence Beta (no Padua) (protein)
chain: YNSGKLEEFVQGNLERECMEEKCSFEEAREVFENTERTTEFWKQYVDGDQCESNPCLNGGSCKDDINSYECWCPFGFEGKNCELDATCNIKNGRCEQFCKNSADNKVVCSCTEGYRLAENQKSCEPAVPFPCGRVSVSQTSKLTRAETVFPDVDYVNSTEAETILDNITQSTQSFNDFTRVVGGEDAKPGQFPWQVVLNGKVDAFCGGSIVNEKWIVTAAHCVETGVKITVVAGEHNIEETEHTEQKRNVIRIIPHHNYNAAINKYNHDIALLELDEPLVLNSYVTPICIANKEYTNIFLKFGSGYVSGWGRVFHRGRSASVLQYLRVPLVDRATCLRSTKFTIYNNMFCAGFHEGGRDSCQGDSGGPHVTEVEGTSFLTGIISWGEECAMKGKYGIYTKVSRYVNWIKEKTKLT
B3: fIX optimized sequence Gamma (no Padua) (protein)
chain: B2 chain with E277K
B4: fIX optimized sequence Beta (with Padua) (protein)
chain: B2 chain with R338L
B5: fIX optimized sequence Gamma (with Padua) (protein)
chain: B2 chain with E277K, R338L
B6: fIX optimized sequence Delta (no Padua) (protein)
chain: B2 chain with E277K, V280T, K293R

Residue numbers refer to the chain shown, from its start.

The series concerns the target T1, activated clotting factor VIII (fVIIIa), P00451.
T1 chain: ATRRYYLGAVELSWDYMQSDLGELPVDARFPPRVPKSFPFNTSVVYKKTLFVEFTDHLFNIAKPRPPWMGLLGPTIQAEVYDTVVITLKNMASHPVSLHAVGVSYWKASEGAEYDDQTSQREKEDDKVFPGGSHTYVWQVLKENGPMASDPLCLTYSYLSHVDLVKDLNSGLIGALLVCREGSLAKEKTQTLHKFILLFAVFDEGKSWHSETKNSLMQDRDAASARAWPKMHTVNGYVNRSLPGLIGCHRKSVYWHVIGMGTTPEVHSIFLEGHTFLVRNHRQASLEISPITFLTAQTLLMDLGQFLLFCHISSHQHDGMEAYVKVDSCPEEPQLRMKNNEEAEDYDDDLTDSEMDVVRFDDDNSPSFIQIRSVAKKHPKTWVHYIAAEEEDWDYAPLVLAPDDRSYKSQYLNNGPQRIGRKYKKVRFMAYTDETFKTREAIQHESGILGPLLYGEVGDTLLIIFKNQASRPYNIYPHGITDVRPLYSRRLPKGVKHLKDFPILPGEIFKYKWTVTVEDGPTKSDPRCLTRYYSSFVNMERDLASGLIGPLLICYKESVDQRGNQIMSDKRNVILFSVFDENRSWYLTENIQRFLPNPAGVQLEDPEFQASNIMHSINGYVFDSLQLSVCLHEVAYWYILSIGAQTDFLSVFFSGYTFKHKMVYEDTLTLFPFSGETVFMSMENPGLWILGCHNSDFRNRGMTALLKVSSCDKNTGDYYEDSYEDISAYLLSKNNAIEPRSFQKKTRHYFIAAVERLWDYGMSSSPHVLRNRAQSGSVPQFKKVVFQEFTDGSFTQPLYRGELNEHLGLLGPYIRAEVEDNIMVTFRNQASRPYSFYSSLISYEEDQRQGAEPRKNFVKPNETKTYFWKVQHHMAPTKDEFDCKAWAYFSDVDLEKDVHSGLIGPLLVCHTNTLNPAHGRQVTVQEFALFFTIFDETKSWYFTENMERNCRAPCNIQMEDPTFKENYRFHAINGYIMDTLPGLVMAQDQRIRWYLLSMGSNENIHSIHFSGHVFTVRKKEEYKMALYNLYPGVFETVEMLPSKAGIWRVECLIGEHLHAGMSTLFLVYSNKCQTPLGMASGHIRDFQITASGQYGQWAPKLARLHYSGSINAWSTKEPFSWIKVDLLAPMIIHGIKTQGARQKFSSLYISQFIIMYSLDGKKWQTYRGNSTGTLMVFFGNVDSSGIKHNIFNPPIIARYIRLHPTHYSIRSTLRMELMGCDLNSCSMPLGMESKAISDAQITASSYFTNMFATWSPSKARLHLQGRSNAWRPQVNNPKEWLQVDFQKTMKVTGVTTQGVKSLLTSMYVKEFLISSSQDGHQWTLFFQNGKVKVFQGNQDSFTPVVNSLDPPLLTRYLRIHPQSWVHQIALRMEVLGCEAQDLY
B1: the “fIX activity (one-stage APTT-dependent coagulation assay)” value (“fIX activity” for short) is reported as “exhibits higher fIX activity”.

Take B2: the “fIX activity” value is “exhibits higher fIX activity”.

In the case of B3, the “fIX activity” value was “exhibits higher fIX activity”.

Consider B4, for which the “fIX activity” value was “exhibits higher fIX activity”.

For B5, the “fIX activity” value is listed as “exhibits higher fIX activity”.

With B6, the “fIX activity” value is given as “exhibits higher fIX activity”.

The values are drawn from patent US20230374484.
